According to patent US20150023989A1, “NEW ANTIBODY DRUG CONJUGATES (ADCS) AND THE USE THEREOF” (SEATTLE GENETICS, INC., priority 2011, published 2015):
Each block holds one binder with its values, some of them ahead of it.

Biological target: FGFR2 on the cell surface of human tumour cell lines (human), P21802
Experiment: cell-based or functional assay

MFM-223, IC50, 72 hr (growth inhibition): 0.0788 nM | SNU-16, IC50, 72 hr (growth inhibition): < 0.03 nM
B1: Example 16 (immunoconjugate of GAL-FR21-mIgG1, coupled to lysine side chains) (antibody)
light: NIVMTQSPKSMSMSVGDRVSITCKASQGVSNDVAWYQKKPGQSPKLLIYSASYRYTGVPDRFTGSGSGTDFTFTISNVQAEDLAVYYCQQHSTTPYTFGGGTKLEIKRTDAAPTVSIFPPSSEQLTSGGASVVCFLNNFYPKDINVKWKIDGSERQNGVLNSWTDQDSKDSTYSMSSTLTLTKDEYERHNSYTCEATHKTSTSPIVKSFNRNEC
heavy: QVQLQQPGAEVVKPGASVKMSCKASGYIFTTYNVHWVKQTPGQGLEWIGSIYPDNGDTSYNQNFKGKATLTADKSSSTAYIQLSSLTSEDSAVYYCARGDFAYWGQGTLVTVSSAKTTPPSVYPLAPGSAAQTNSMVTLGCLVKGYFPEPVTVTWNSGSLSSGVHTFPAVLQSDLYTLSSSVTVPSSTWPSETVTCNVAHPASSTKVDKKIVPRDCGCKPCICTVPEVSSVFIFPPKPKDVLTITLTPKVTCVVVDISKDDPEVQFSWFVDDVEVHTAQTQPREEQFNSTFRSVSELPIMHQDWLNGKEFKCRVNSAAFPAPIEKTISKTKGRPKAPQVYTIPPPKEQMAKDKVSLTCMITDFFPEDITVEWQWNGQPAENYKNTQPIMDTDGSYFVYSKLNVQKSNWEAGNTFTCSVLHEGLHNHHTEKSLSHSPGK
modifications: here or on the partner: auristatin linker-toxophore on side chain NH of lysine residues, positions not stated (drug/mAb ratio 8.7 for the antibody)

MFM-223, IC50, 72 hr (growth inhibition): 0.278 nM | SNU-16, IC50, 72 hr (growth inhibition): 0.0616 nM
B2: Example 17 (immunoconjugate of GAL-FR22-mIgG2a, coupled to lysine side chains) (antibody)
light: DIQMTQSPSSLSASLGGRVTITCKASQDIKNYIAWYQHKPGKSPRLLIHYTSTLQPGVPSRFSGSGSGRDYSFSISNLEPEDIATYYCLQYDDLYMFGGGTKLDIKRTDAAPTVSIFPPSSEQLTSGGASVVCFLNNFYPKDINVKWKIDGSERQNGVLNSWTDQDSKDSTYSMSSTLTLTKDEYERHNSYTCEATHKTSTSPIVKSFNRNEC
heavy: QVQLKQSGPGLVQPSQSLSITCTVSGFSLTSFGVHWVRQSPGKGLEWLGVIWSGGSTDYNADFRSRLSISKDNSKSQIFFKMNSLQPDDTAIYYCANFYYGYDDYVMDYWGQGTSVTVSSAKTTAPSVYPLAPVCGDTTGSSVTLGCLVKGYFPEPVTLTWNSGSLSSGVHTFPAVLQSDLYTLSSSVTVTSSTWPSQSITCNVAHPASSTKVDKKIEPRGPTIKPCPPCKCPAPNLLGGPSVFIFPPKIKDVLMISLSPIVTCVVVDVSEDDPDVQISWFVNNVEVHTAQTQTHREDYNSTLRVVSALPIQHQDWMSGKEFKCKVNNKDLPAPIERTISKPKGSVRAPQVYVLPPPEEEMTKKQVTLTCMVTDFMPEDIYVEWTNNGKTELNYKNTEPVLDSDGSYFMYSKLRVEKKNWVERNSYSCSVVHEGLHNHHTTKSFSRTPGK
modifications: here or on the partner: auristatin linker-toxophore on side chain NH of lysine residues, positions not stated (drug/mAb ratio 8.1 for the antibody)
